T1: VWF-73 FRETS substrate, P04275
T1 chain: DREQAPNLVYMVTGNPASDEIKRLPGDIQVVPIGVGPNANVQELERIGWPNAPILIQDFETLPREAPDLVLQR

B1: mrADAMTS13 (truncated modified human recombinant ADAMTS13) (protein)
chain: AAGGILHLELLVAVGPDVFQAHQEDTERYVLTNLNIGAELLRDPSLGAQFRVHLVKMVILTEPEGAPNITANLTSSLLSVCGWSQTINPEDDTDPGHADLVLYITRFDLELPDGNRQVRGVTQLGGACSPTWSCLITEDTGFDLGVTIAHEIGHSFGLEHDGAPGSGCGPSGHVMASDGAAPRAGLAWSPCSRRQLLSLLSAGRARCVWDPPRPQPGSAGHPPDAQPGLYYSANEQCRVAFGPKAVACTFAREHLDMCQALSCHTDPLDQSSCSRLLVPLLDGTECGVEKWCSKGRCRSLVELTPIAAVHGRWSSWGPRSPCSRSCGGGVVTRRRQCNNPRPAFGGRACVGADLQAEMCNTQACEKTQLEFMSQQCARTDGQPLRSSPGGASFYHWGAAVPHSQGDALCRHMCRAIGESFIMKRGDSFLDGTRCMPSGPREDGTLSLCVSGSCRTFGCDGRMDSQQVWDRCQVCGGDNSTCSPRKGSFTAGRAREYVTFLTVTPNLTSVYIANHRPLFTHLAVRIGGRYVVAGKMSISPNTTYPSLLEDGRVEYRVALTEDRLPRLEEIRIWGPLQEDADIQVYRRYGEEYGNLTRPDITFTYFQPKPRQAKGELGTELGSEGKPIPNPLLGLDSTRTGHHHHHH
B2: Truncated wild-type ADAMTS13 (protein)
chain: AAGGILHLELLVAVGPDVFQAHQEDTERYVLTNLNIGAELLRDPSLGAQFRVHLVKMVILTEPEGAPNITANLTSSLLSVCGWSQTINPEDDTDPGHADLVLYITRFDLELPDGNRQVRGVTQLGGACSPTWSCLITEDTGFDLGVTIAHEIGHSFGLEHDGAPGSGCGPSGHVMASDGAAPRAGLAWSPCSRRQLLSLLSAGRARCVWDPPRPQPGSAGHPPDAQPGLYYSANEQCRVAFGPKAVACTFAREHLDMCQALSCHTDPLDQSSCSRLLVPLLDGTECGVEKWCSKGRCRSLVELTPIAAVHGRWSSWGPRSPCSRSCGGGVVTRRRQCNNPRPAFGGRACVGADLQAEMCNTQACEKTQLEFMSQQCARTDGQPLRSSPGGASFYHWGAAVPHSQGDALCRHMCRAIGESFIMKRGDSFLDGTRCMPSGPREDGTLSLCVSGSCRTFGCDGRMDSQQVWDRCQVCGGDNSTCSPRKGSFTAGRAREYVTFLTVTPNLTSVYIANHRPLFTHLAVRIGGRYVVAGKMSISPNTTYPSLLEDGRVEYRVALTEDRLPRLEEIRIWGPLQEDADIQVYRRYGEEYGNLTRPDITFTYFQPKPRQA

Biological target: T1, VWF-73 FRETS substrate, P04275

Row | Protein | ADAMTS13 activity (VWF-73 FRETS assay) | ADAMTS13 specific activity of mrADAMTS13 released from PLGA microparticles (FRETS VWF-73 fluorescent emission)
1 | B1 | demonstrated enhanced activity of mrADAMTS13 compared to truncated wild type ADAMTS13 | This data demonstrates active ADAMTS13 enzyme is present in all samples including at 120 hours
2 | B2 | demonstrated enhanced activity of mrADAMTS13 compared to truncated wild type ADAMTS13 | –
